Measured values published in paper PMC8285477, “The molecular basis of regulation of bacterial capsule assembly by Wzc” (Nature Communications, 2021).

Key:
[1] = biological target: Wzc^K540M4YE (E. coli E69 (O9a:K30)); experiment: cryo-EM structure; purified protein ~2 mg/ml in LMNG, apo and with ADP and Mg2+; C1 and C8 reconstructions
[2] = biological target: Wzc^K540M4YE (E. coli E69 (O9a:K30)); experiment: cryo-EM 2D classification of particles; purified protein ~1.8-2 mg/ml vitrified on grids, reference-free 2D class averages
[3] = biological target: Wzc^K540M (E. coli E69 (O9a:K30)); experiment: negative-stain EM; purified protein around 0.05 mg/ml on carbon-coated grids, 0.75% uranyl formate
[4] = biological target: Wzc^K540M (E. coli E69 (O9a:K30)); experiment: cryo-EM structure; purified protein ~2 mg/ml in LMNG, apo and with ADP and Mg2+; C1 and C8 reconstructions
[5] = biological target: Wzc^K540M double (717 and 718) Tyr to Glu mutant (E. coli E69 (O9a:K30)) (UniProt P76387); experiment: EM (kind not stated); particles of purified Tyr to Glu mutants of Wzc^K540M on EM grids, percentage of octamers (Supplementary Fig. 8a)
[6] = biological target: Wzc^K540M triple (715, 717 and 718) Tyr to Glu mutant (E. coli E69 (O9a:K30)) (UniProt P76387); experiment: as above
[7] = biological target: Wzc^K540MΔMotif3 (E. coli E69 (O9a:K30)) (UniProt P76387); experiment: cryo-EM 2D classification of particles; purified protein ~1.8-2 mg/ml vitrified on grids, reference-free 2D class averages
Wzb treated Wzc = Wzb treated Wzc (E. coli E69 (O9a:K30), UniProt P76387 1-720); experiment: as above; settings: both partners purified

Molecule: Wzc^K540M4YE (from UniProt P76387 1-720) (enzyme)
- stoichiometry N [1]: 8
- percent of particles that are octamers [2]: 50%

Molecule: Wzc^K540M (from UniProt P76387 1-720) (enzyme)
- stoichiometry N [3]: 8
- stoichiometry N [4]: 8

Molecule: Wzc^K540M double (717 and 718) Tyr to Glu mutant (from UniProt P76387 1-720) (enzyme)
- stoichiometry N [5]: 8

Molecule: Wzc^K540M triple (715, 717 and 718) Tyr to Glu mutant (from UniProt P76387 1-720) (enzyme)
- stoichiometry N [6]: 8

Molecule: Wzc^K540MΔMotif3 (from UniProt P76387 1-720) (enzyme)
- stoichiometry N [7]: 8

B1: Wzb treated Wzc (enzyme)
chain: MTSVTSKQSTILGSDEIDLGRVIGELIDHRKLIISITSVFTLFAILYALLATPIYETDALIQIEQKQGNAILSSLSQVLPDGQPQSAPETALLQSRMILGKTIDDLNLQIQIEQKYFPVIGRGLARLMGEKPGNIDITRLYLPDSDDISNNTPSIILTVKDKENYSINSDGIQLNGVVGTLLNEKGISLLVNEIDAKPGDQFVITQLPRLKAISDLLKSFSVADLGKDTGMLTLTLTGDNPKRISHILDSISQNYLAQNIARQAAQDAKSLEFLNQQLPKVRAELDSAEDKLNAYRKQKDSVDLNMEAKSVLDQIVNVDNQLNELTFREAEVSQLYTKEHPTYKALMEKRQTLQEEKSKLNKRVSSMPSTQQEVLRLSRDVESGRAVYLQLLNRQQELNIAKSSAIGNVRIIDNAVTDPNPVRPKKTIIIVIGVVLGLIVSVVLVLFQVFLRRGIESPEQLEEIGINVYASIPISEWLTKNARQSGKVRKNQSDTLLAVGNPADLAVEAIRGLRTSLHFAMMEAKNNVLMISGASPSAGKTFISSNLAATIAITGKKVLFIDADLRKGYAHKMFGHKNDKGLSEFLSGQAAAEMIIDKVEGGGFDYIGRGQIPPNPAELLMHPRFEQLLNWASQNYDLIIIDTPPILAVTDAAIIGRYAGTCLLVARFEKNTVKEIDVSMKRFEQSGVVVKGCILNGVVKKASSYYRYGHNHYGYSYYDKK
modifications: dephosphorylated by phosphatase Wzb; about 0.1% octameric particles; C-terminal His6 omitted; the PDB entity is the K540M construct, reverted to K540 / dephosphorylated by phosphatase Wzb; about 0.1%
- stoichiometry N (Wzb treated Wzc): 8
